For one protein, K0.5 results are on record in publication PMC3494461.

Substrate in this data set: CC(=O)C(=O)O
In words: purified protein. The class given is biochemical, Escherichia coli. To be noted: 37 °C, pyruvate (1–90 mM) as donor and acceptor, no D-GAP.

B1: DXP synthase (Escherichia coli K-12) (protein)
chain: SFDIAKYPTLALVDSTQELRLLPKESLPKLCDELRRYLLDSVSRSSGHFASGLGTVELTVALHYVYNTPFDQLIWDVGHQAYPHKILTGRRDKIGTIRQKGGLHPFPWRGESEYDVLSVGHSSTSISAGIGIAVAAEKEGKNRRTVCVIGDGAITAGMAFEAMNHAGDIRPDMLVILNDNEMSISENVGALNNHLAQLLSGKLYSSLREGGKKVFSGVPPIKELLKRTEEHIKGMVVPGTLFEELGFNYIGPVDGHDVLGLITTLKNMRDLKGPQFLHIMTKKGRGYEPAEKDPITFHAVPKFDPSSGCLPKSSGGLPSYSKIFGDWLCETAAKDNKLMAITPAMREGSGMVEFSRKFPDRYFDVAIAEQHAVTFAAGLAIGGYKPIVAIYSTFLQRAYDQVLHDVAIQKLPVLFAIDRAGIVGADGQTHQGAFDLSYLRCIPEMVIMTPSDENECRQMLYTGYHYNDGPSAVRYPRGNAVGVELTPLEKLPIGKGIVKRRGEKLAILNFGTLMPEAAKVAESLNATLVDMRFVKPLDEALILEMAASHEALVTVEENAIMGGAGSGVNEVLMAHRKPVPVLNIGLPDFFIPQGTQEEMRAELGLDAAGMEAKIKAWLA
In the case of B1, the K0.5 was found to be 51.0 ± 1.7 mM.
